Results reported in US20170319690A1 (AGENCY FOR SCIENCE TECHNOLOGY AND RESEARCH, published 2017).
Residue numbers refer to the chain shown, from its start.

Key:
[1] = molecular target: biotinylated murine PD-L1 (murine) (UniProt Q9EP73); test: blocking ELISA; murine PD-L1 binding to murine PD-1 (the blocked partner) in the presence of the IgG
[2] = molecular target: T1, human PD-L1 expressed on cells (human, UniProt Q9NZQ7 19-290); test: flow cytometry blocking assay; antibody mixed with human PD-1-PE (the blocked partner) and added to HEK293 cells transfected with human PD-L1
T1 construct: whole, on cells; also called PD-L1 transfected HEK 293 cells; HEK293-6E cells transfected with human PD-L1
From the text: Cells were washed 3 times with PBS and all data were collected on a BD FACSCanto II (BD Bioscience) and analysed on BD FACSDiva software (BD Bioscience).

biotinylated human PD-L1 [3] = molecular target: T2, biotinylated human PD-L1 (human, UniProt Q9NZQ7 19-239, limits assumed, biotinylated); test: ELISA; antibody coated on the plate at 2 ug/mL, biotinylated human PD-L1 titrated (x axis: Human PD-L1, nM), streptavidin-HRP/TMB
T2 construct: construct not described
Description: Binding was measured by ELISA. Antibodies were coated onto maxisorp plates at 2 μg/mL in coating buffer and incubated overnight at 4° C. The next day, plates were washed with wash buffer (PBS+0.05% Tween-20), and blocker with casein for 1 hour, at room temperature. Plates were then washed again using wash buffer. […] Plates were then washed again using wash buffer. […] Plates were then washed again using wash buffer. Finally, TMB was added to develop the ELISA; TMB conversion by HRP was stopped using 1M H—Cl.

biotinylated human PD-L1 [4] = molecular target: T2, biotinylated human PD-L1; test: avidity ELISA; biotinylated human PD-L1 (0.2 ug/mL) captured on a neutravidin plate, IgG titrated, anti-human Fc-HRP/TMB
Description: Neutravidin was coated onto maxisorp plates at 2 μg/mL in coating buffer and incubated overnight at 4° C. The next day, plates were washed with wash buffer (PBS+0.05% Tween-20), and blocker with casein for 1 hour, at room temperature. Plates were then washed again using wash buffer. […] Plates were then washed again using wash buffer. The different antibodies were then added at various concentrations, and incubated for 1 hour at room temperature. Plates were then washed again using wash buffer. Anti-human Fc-HRP was then added and incubated for 1 hour at room temperature. Plates were then washed again using wash buffer. Finally, TMB was added to develop the ELISA; TMB conversion by HRP was stopped using 1M H—Cl.

biotinylated human PD-L1 [5] = molecular target: T2, biotinylated human PD-L1; test: blocking ELISA; biotinylated human PD-L1 pre-incubated with the Fab, then added to plate-coated human PD-1-Fc (the blocked partner); streptavidin-HRP/TMB

T2 sequence (Q9NZQ7 19-239 limits assumed): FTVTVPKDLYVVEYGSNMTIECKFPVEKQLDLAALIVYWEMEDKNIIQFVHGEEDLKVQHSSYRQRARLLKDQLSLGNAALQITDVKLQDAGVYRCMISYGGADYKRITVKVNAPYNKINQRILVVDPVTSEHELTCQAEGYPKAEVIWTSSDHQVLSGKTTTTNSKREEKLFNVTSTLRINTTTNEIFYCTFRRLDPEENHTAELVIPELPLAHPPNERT
T1 sequence (Q9NZQ7 19-290): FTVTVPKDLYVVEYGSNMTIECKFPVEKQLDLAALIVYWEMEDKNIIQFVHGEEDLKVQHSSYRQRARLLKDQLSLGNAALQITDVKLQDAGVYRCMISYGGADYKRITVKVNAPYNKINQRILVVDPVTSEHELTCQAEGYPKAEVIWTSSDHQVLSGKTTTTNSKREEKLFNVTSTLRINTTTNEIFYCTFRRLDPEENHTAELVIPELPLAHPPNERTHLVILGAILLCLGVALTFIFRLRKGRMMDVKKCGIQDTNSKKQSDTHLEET
Chain of biotinylated murine PD-L1 (murine) (Q9EP73 19-238 limits assumed): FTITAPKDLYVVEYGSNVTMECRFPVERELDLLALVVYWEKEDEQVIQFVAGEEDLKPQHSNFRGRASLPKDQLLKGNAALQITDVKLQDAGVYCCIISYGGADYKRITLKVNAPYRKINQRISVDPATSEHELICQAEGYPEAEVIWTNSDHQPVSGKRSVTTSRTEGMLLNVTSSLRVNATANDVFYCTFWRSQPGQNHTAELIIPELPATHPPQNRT

“commercially available anti-murine PD-L1 IgG antibody 10F.9G2 (BioLegend)” showed an IC50 (read off the curve) [1] of 10 nM.

B1: anti-PD-L1 antibody H12, IgG1 format (antibody, V domains shown)
VH: EVQLVQSGAEVKKPGASVKVSCKASGGTFSSYAISWVRQAPGQGLEWMGRIIPILGIANYAQKFQGRVTITADKSTSTAYMELSSLRSEDTAVYYCARSGHGYSYGAFDYWGQGTL
VL: QSVLTQPPSVSGAPGQRVTISCTGSSSNIGAGYDVHWYQQLPGTAPKLLIYGNSNRPSGVPDRFSGSKSGTSASLAITGLQAEDEADYYCQSYDSSLSGSYVVFGGGTKLTVL
notes: IgG1
With B1 the “IC50 (read off the curve)” value [2] was about 9 nM.

B2: anti-PD-L1 antibody H12, IgG4 format (antibody, V domains shown)
VH: B1 VH
VL: B1 VL
notes: IgG4
In the case of B2, the “IC50 (read off the curve)” value [2] is reported as about 9 nM.

B3: anti-PD-L1 antibody C4 (format not stated in the example) (antibody, V domains shown)
VH: QVQLQQSGAEVKKPGSSVKVSCKASGGTFSSYAISWVRQAPGQGLEWMGRIIPILGIANYAQKFQGRVTITADKSTSTAYMELSSLRSEDTAVYYCARGGYGGNSLYAFDIWGQGTMVTVSS
VL: QSVVTQPPSVSAAPGQKVTISCSGSSSNIGNNYVSWYQQLPGTAPKLLIYDNNERLSGIPDRFSGSKSGTSATLGISGLQTGDEADYYCGTWDSSLSVVVFGGGTKLTVL
notes: detected with anti-human Fc-HRP in the avidity ELISA, so it carried an Fc there
With B3 the “EC50 (read off the curve)” value (biotinylated human PD-L1 [3]) was about 0.9 nM and the “EC50 (read off the curve)” value (biotinylated human PD-L1 [4]) was about 0.9 nM.

B4: anti-PD-L1 antibody clone A1, Fab format (Fab, V domains shown)
VH: QVQLQQSGAEVKKPGSSVKVSCKASGGTFSSYAISWVRQAPGQGLEWMGRIIPILGIANYAQKFQGRVTITADKSTSTAYMELSSLRSEDTAVYYCARGGSYGSLYAFDIWGQGTMVTVSS
VL: QSVLTQPPSVSAAPGQRVSISCSGRSSNIASHDVFWYQQLPGTAPKIVMYETNKRPWGIPDRFSGSKSGTSATLDIAGLQTGDEADYYCGAWDSGLTGMLFGGGTKVTVL
notes: Human Fab from a phage display library
For B4, the “IC50 (read off the curve)” value (biotinylated human PD-L1 [5]) was about 50 nM.

B5: anti-PD-L1 antibody H12_GL, IgG1 format (antibody, V domains shown)
VH: B4 VH with Q5V, G99S, S101H, Y102G, G103Y, L105Y, Y106G, I110Y, M116L
VL: B1 VL
notes: IgG1
B5 was tested, and the “IC50 (read off the curve)” value [2] was about 7 nM.

B6: anti-PD-L1 antibody H12_GL, IgG4 format (antibody, V domains shown)
VH: B4 VH with Q5V, G99S, S101H, Y102G, G103Y, L105Y, Y106G, I110Y, M116L
VL: B1 VL
notes: IgG4
In the case of B6, the “IC50 (read off the curve)” value [2] is reported as about 7 nM.

B7: anti-PD-L1 antibody clone C2, Fab format (Fab, V domains shown)
VH: B4 VH with M116T
VL: SYELTQPPSVSVAPGKTTRITCGGDNIGRKSVHWYQQRPGQAPLLLVYDDGDRPSGIPDRFSGSNSGNTATLTISGTQAMDEADYYCQAWDSTVVFGGGTRLTVL
notes: as for B4
For B7, the “IC50 (read off the curve)” value (biotinylated human PD-L1 [5]) was about 40 nM.
